For one substance, % dig. CP (digested protein, peptides of 1500 Dalton or below, gel filtration HPLC) in the in vitro pancreatic insufficiency digestion model (% dig. CP of total protein) results are on record in patent US20120207741A1.

This assay concerns the target protein of the maize/soybean meal (SBM) substrate (6:4).

“protease derived from Nocardiopsis sp. NRRL 18262 (SEQ ID NO: 1) (enzyme)” returned a % dig. CP (digested protein, peptides of 1500 Dalton or below, gel filtration HPLC) in the in vitro pancreatic insufficiency digestion model (% dig. CP of total protein) of 49.9.
